Test results published in patent publication EP2225268B1.
One block for each molecule: values may come before it.

Tests used:
[1] = target: Native NGAL purchased from Diagnostics Development (Uppsala, Sweden), non-reduced (UniProt P80188); experiment: … sandwich CMIA, capture HYB 211-01, detection acridinium-HYB 211-02; NGAL 50 ng/mL
[2] = target: Wild-type recombinant human NGAL dimer calibrators treated with DTT (human) (UniProt P80188); experiment: as above
[3] = target: Wild-type recombinant human NGAL dimer expressed in CHO cells (human) (UniProt P80188); experiment: as above
[4] = target: Wild-type recombinant human NGAL monomer expressed in CHO cells (human) (UniProt P80188); experiment: as above
[5] = target: Native NGAL purchased from Diagnostics Development (Uppsala, Sweden), non-reduced (UniProt P80188); experiment: … sandwich CMIA, capture HYB 211-01, detection acridinium-HYB 211-02; NGAL 250 ng/mL
[6] = target: Wild-type recombinant human NGAL dimer calibrators treated with DTT (human) (UniProt P80188); experiment: as above
[7] = target: Wild-type recombinant human NGAL dimer expressed in CHO cells (human) (UniProt P80188); experiment: as above
[8] = target: Wild-type recombinant human NGAL monomer expressed in CHO cells (human) (UniProt P80188); experiment: as above
[9] = target: Native NGAL purchased from Diagnostics Development (Uppsala, Sweden), non-reduced (UniProt P80188); experiment: … sandwich CMIA, capture HYB 211-01, detection acridinium-HYB 211-02; NGAL 1000 ng/mL
[10] = target: Wild-type recombinant human NGAL dimer calibrators treated with DTT (human) (UniProt P80188); experiment: as above
[11] = target: Wild-type recombinant human NGAL dimer expressed in CHO cells (human) (UniProt P80188); experiment: as above
[12] = target: Wild-type recombinant human NGAL monomer expressed in CHO cells (human) (UniProt P80188); experiment: as above
[13] = target: Wild-type recombinant human NGAL dimer calibrators treated with DTT (human) (UniProt P80188); experiment: … sandwich CMIA, capture HYB 211-01, detection acridinium-HYB 211-02; calibrator F, NGAL 1000 ng/mL
[14] = target: Wild-type recombinant human NGAL dimer expressed in CHO cells (human) (UniProt P80188); experiment: as above
[15] = target: Wild-type recombinant human NGAL dimer calibrators treated with DTT (human) (UniProt P80188); experiment: … sandwich CMIA, capture HYB 211-01, detection acridinium-HYB 211-02; curve fit with monomer calibrators; target 250 ng/mL
[16] = target: Wild-type recombinant human NGAL dimer expressed in CHO cells (human) (UniProt P80188); experiment: as above
[17] = target: Wild-type recombinant human NGAL dimer calibrators treated with DTT (human) (UniProt P80188); experiment: … sandwich CMIA, capture HYB 211-01, detection acridinium-HYB 211-02; DTT-treated against untreated dimer calibrator; target 5 ng/mL
[18] = target: Wild-type recombinant human NGAL monomer expressed in CHO cells (human) (UniProt P80188); experiment: … sandwich CMIA, capture 1-2322-455, detection acridinium-1-903-430; monomer calibrator plus TCEP; NGAL 5 ng/mL
[19] = target: Wild-type recombinant human NGAL monomer expressed in CHO cells (human) (UniProt P80188); experiment: … sandwich CMIA, capture 1-2322-455, detection acridinium-1-903-430; monomer calibrator plus TCEP; NGAL 50 ng/mL
[20] = target: Wild-type recombinant human NGAL dimer expressed in CHO cells (human) (UniProt P80188); experiment: … sandwich CMIA, capture 1-2322-455, detection acridinium-1-903-430; curve fit with monomer calibrators; target 50 ng/mL
[21] = target: Wild-type recombinant human NGAL monomer expressed in CHO cells (human) (UniProt P80188); experiment: as above
[22] = target: Wild-type recombinant human NGAL dimer expressed in CHO cells (human) (UniProt P80188); experiment: … sandwich CMIA, capture 1-2322-455, detection acridinium-1-903-430; curve fit with monomer calibrators; target 250 ng/mL
[23] = target: Wild-type recombinant human NGAL monomer expressed in CHO cells (human) (UniProt P80188); experiment: as above
[24] = target: Wild-type recombinant human NGAL dimer expressed in CHO cells (human) (UniProt P80188); experiment: … sandwich CMIA, capture 1-2322-455, detection acridinium-1-903-430; curve fit with monomer calibrators; target 1000 ng/mL
[25] = target: Wild-type recombinant human NGAL monomer expressed in CHO cells (human) (UniProt P80188); experiment: as above
[26] = target: Wild-type recombinant human NGAL monomer expressed in CHO cells (human) (UniProt P80188); experiment: … sandwich CMIA, capture 1-2322-455, detection acridinium-1-903-430; monomer calibrator plus TCEP; curve fit with monomer calibrators; target 50 ng/mL

RLUs [1]: 151000 RLUs
RLUs [2]: 101000 RLUs
RLUs [3]: 31500 RLUs
RLUs [4]: 101000 RLUs
RLUs [5]: 620000 RLUs
RLUs [6]: 378000 RLUs
RLUs [7]: 142000 RLUs
RLUs [8]: 396000 RLUs
RLUs [9]: 1.32e+06 RLUs
RLUs [10]: 855000 RLUs
RLUs [11]: 390000 RLUs
RLUs [12]: 885000 RLUs
RLUs [13]: 855000 RLUs
RLUs [14]: 390000 RLUs
Curve Fit Results [15]: 236 ng/mL
Curve Fit Results [16]: 71.8 ng/mL
% Increase due to DTT [17]: 229%
Molecule: anti-NGAL antibody HYB 211-01 from AntibodyShop A/S, Gentofte, Denmark

RLUs [18]: 29300 RLUs
RLUs [19]: 241000 RLUs
Curve Fit Results [20]: 13.5 ng/mL
Curve Fit Results [21]: 48.2 ng/mL
Curve Fit Results [22]: 71.7 ng/mL
Curve Fit Results [23]: 255 ng/mL
Curve Fit Results [24]: 294 ng/mL
Curve Fit Results [25]: 1010 ng/mL
Curve Fit Results [26]: 48.6 ng/mL
B1: antibody produced by murine hybridoma cell line 1-2322-455 having ATCC Accession No. PTA-8024 (antibody, V domains shown)
VH: EVQLVESGGGLVQPGGSLKLSCAASGFTFNNYYMSWVRQTPERRLEWVAYISSSGGSTYYSDSVRGRFTISRDTARNTLYLQMTSLKSEDTAMYYCARHFGDYSYFDYWGQGTTLTVSS
VL: DIQMTQSPASLSASVGETVTITCRASENFYSYLAWYQQKQGKSPQLLVYNAKTLAEGVPSRFSGSGSGTQFSLKINSLQPEDFGTYYCQHHYDIPLTFGAGTKLELKR
